Measurements published in IntAct's records for PubMed 15385968.

Molecular target: xrcc4_human XRCC4 (UniProt Q13426)
Sequence (Q13426 whole entry): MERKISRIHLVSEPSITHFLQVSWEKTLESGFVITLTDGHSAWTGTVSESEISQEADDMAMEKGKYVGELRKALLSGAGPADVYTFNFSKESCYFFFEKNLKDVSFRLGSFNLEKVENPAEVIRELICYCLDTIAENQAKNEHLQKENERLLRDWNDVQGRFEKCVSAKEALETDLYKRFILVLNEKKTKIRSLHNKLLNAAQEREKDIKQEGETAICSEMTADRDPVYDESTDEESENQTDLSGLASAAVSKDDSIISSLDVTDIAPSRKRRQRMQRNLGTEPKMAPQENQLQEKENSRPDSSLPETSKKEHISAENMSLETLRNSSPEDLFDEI

Bifunctional polynucleotide phosphatase/kinase (Homo sapiens), Q96T60 R35A
effect of a mutation on the interaction: disrupting interaction
